Test results reported in the RNAGym collection of RNA variant scans (doi:10.1073/pnas.2313332121).
This sample holds only a part of the variants without activity.

B1: TPR 5TU (parent)
chain: GGAUCUUCUCGAUCUAACAAAAAAGACAAAUCUGCCACAAAGCUUGAGAGCAUCUUCGGAUGCAGAGGCGGCAGCCUUCGGUGGCGCGAUAGCGCCAACGUUCUCAACUAUGACACGCAAAACGCGUGCUCCGUUGAAUGGAGUUUAUCAUG

Variants of: B1
Test: polymerase ribozyme fitness, log enrichment relative to wild type (log ratio); higher = more active; in vitro selection for triplet polymerase activity
Outline: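 One round of in vitro selection, in triplicate, was applied to PCR-built, transcribed mutant libraries of each subunit of a heterodimeric triplet polymerase ribozyme. The steps were annealing with a biotinylated primer, partner subunit and triplets, incubation frozen at −7 °C, gel excision of extended constructs, streptavidin-bead capture and RT-PCR. Fitness is the logarithm, base 2, of genotype enrichment over wild-type enrichment from inverse-variance-weighted replicate averages of Illumina-sequenced inputs and outputs, keeping genotypes with ≥10 input reads and ≥1 read per output.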

Variant | polymerase ribozyme fitness (log ratio)
C5G C87U A98G | -1.31
A3U C85U | -0.254
U4C C75A C85G C99G U145G A147U | ≤ -4.2
C5A A17C G83A G143U | -2.68
A3U U6A A19U G42U A113G A121U G124C U148A | ≤ -4.2
A3U C108G A121U | ≤ -4.2
U4C U53A C76G U90C U145C | ≤ -4.2
A3G U13G A23C C43A C87U | ≤ -4.2
U4A U31G A37C G86C C123G | ≤ -4.2
C5A G86U G92U C116G | -0.979
A3U A16U C93U U102C | -4.1
C5A U31C C36A G62C A66G C85G U104A | ≤ -4.2
C5G G124C | -0.88
U4C C8A G59A | -4.18
C5G U31A A147C | -0.56
A3U C27U A49C G88C C96A C125G A142C | ≤ -4.2
C5A U33G C38U A49C G67C G92C | ≤ -4.2
C5G A12U C27G A49C C54U U61A C93G C95A A119G U134A A150C | ≤ -4.2
A3U C87A | -3.25
C5A C93U A98G C103A | -3.31
A3U U15A U82C G86A A91G | -3.4
A3U C93U G141A U146G | -2.5
A3U C5A C35U C87A | ≤ -4.2
U4A U56A | -0.0652

Variant | polymerase ribozyme fitness (log ratio)
U4C C10G A17U A22G C36U U78A G92A C118U | ≤ -4.2
C5A A91U | -4.1
C5A C57U G86A A120G G141C | -2.54
C5G G25U C27G A37G G46A U61A C96U | -4.17
C5A A30U U77A G92U | ≤ -4.2
A3U C57A G71A A91G | ≤ -4.2
C5A A21U A30G A39U G68A C149A | ≤ -4.2
U4G G48A U77G G83C U135A | ≤ -4.2
U4A A17G A47G G68U C69G G88U G124A U127A G128C G140U U145G | ≤ -4.2
U4A G84A U101G | -0.65
U4G C10A U56A G71C G84C | ≤ -4.2
C5A G86U G141A | -1.49
A3U A37G G59U G86A C99A U130C G141U | ≤ -4.2
U4A U61A G94A | -1.99
U4A A21U G50A G68A G74A C75G C93U A107C C131G | ≤ -4.2
U4C A52G G59U U145G | -1.5
C5G C10G U13G C14G C54A C57U G88U G94A U139C U144C | ≤ -4.2
A3U C72U C79G G92U | ≤ -4.2
A3U A147C | -0.51
U4G C54G C96G A137G | -4.19
U4G U13C A19G A52G U56G A64U G80C A91G C95G C105U U109A A119U | ≤ -4.2
A3U A17C C35U G59A C85A | -3.22
U4G A30G C32A C85A G141C | ≤ -4.2
C5A A22C C38A G71A A89C | ≤ -4.2

Variant | polymerase ribozyme fitness (log ratio)
U4G G140C | ≤ -4.2
A3U G59A A120U | -0.556
U4C G50C G62A G84A G92C | ≤ -4.2
U4A G84U C85U G117U U145C | -2.29
C5G A37U G83C C129A U145A | ≤ -4.2
A3U C5U C87U C96G C131A | ≤ -4.2
A3U C32A U45G G50C U53A A60G G94A A98G G141U | ≤ -4.2
A3U U135G | -4.19
C5G C85U G88U C105G A119C | ≤ -4.2
C5G A16C G59U C96A | -2.66
U4C U55A G86U | -2.08
A3U G62U | -0.505
C5G A20U U33G A39C U55G C57A A91G A138C | ≤ -4.2
U4C A19C C38G C93U C114G | ≤ -4.2
C5G A12G A19U C75A C103G C114U G117A A121C A142U | ≤ -4.2
C5A G42C G84C C85A G86A G92C | ≤ -4.2
C5A A52C A73U U82C C85U G136U | ≤ -4.2
A3U A21G C76G G86U A121U | ≤ -4.2
C5A A39U C85U U90G C118U C125U | ≤ -4.2
C5G G50C A122U C125U | -3.46
U4G C57G | -0.334
U4A C8A C43A A64U C93A U146C | ≤ -4.2
U4G G25U G48U U55G G84C A115C U134C | ≤ -4.2
U4G A26G U33A C54G G86A G88U U90G | ≤ -4.2

Variant | polymerase ribozyme fitness (log ratio)
C5A C10G C85A C118G | -3.84
C5G U7C U13A A16G C51U G92C A98G C114A | -4.13
A3U C57U C85A C118U C125A | -2.55
U4C C87A A89U C129G | ≤ -4.2
A3U A30G A49C | ≤ -4.2
U4A U13C C36U C96G | -2.21
C5A A64G A66G U134G | ≤ -4.2
U4A G84A C99U U109G A120C G152C | -3.96
C5G A41C U134C | -1.61
C5G G50U G84U | -1.65
U4A A17U A66G C69A G84U A138U | ≤ -4.2
C5A C75U C87U | 0.223
C5A U6C A30U A91U C118A A138G | ≤ -4.2
C5G G80A | 0.101
C5A U13G C27A C36A C51U C87A | ≤ -4.2
A3U A41C C95U C99G C118A G136A U144G | -3.81
A3U G94A G117C A137G | -3
C5A G42A A97G U101G C103G A110G G140U | -3.6
U4A U139C | -4.08
A3U U7G A39C U56A G83C C132U U144C U145C C149A | ≤ -4.2
A3G G94U U104C C129U U134A | ≤ -4.2
C5A G59U C69U G94U A98G U102G U135C | ≤ -4.2
U4G U61G C76G C93G C103U | ≤ -4.2
C5G C14A G48U U53A G74A G80C U82G C96G C118G G133U | ≤ -4.2

Variant | polymerase ribozyme fitness (log ratio)
U4C C8U A22U G50U C54U A107U C116G | ≤ -4.2
C5G A12G C63U G84C C96U | ≤ -4.2
C5A C54U C75G G80C U82A C87U C99G | ≤ -4.2
A3U A41G C85U G126U U144A | -1.79
A3U G58A U130A | -3.64
A3U U56A G83A C85U A91G C95U C99A U144G | ≤ -4.2
U4A A66C A89U C93A C125G G143A | ≤ -4.2
C5G C108U | -3.65
C5A A52U G83A | -3.03
U4A A41C U61A C63G A64C C72A C96G | ≤ -4.2
U4G G141U | 0.552
C5A C8U U9G C51U C85U A106U A107C C118A | ≤ -4.2
U4G C38U G86C C105G A138C | ≤ -4.2
U4A G11U G50A C76U G84U G94C G126U | ≤ -4.2
A3G G83U | -0.444
C5A A23C C85U G88A C105U A120G | ≤ -4.2
A3U C5A A19U G50A C57U | -3.13
U4G C85U U134G U145G | -2.85
U4A A22C C96G A119U C149U | -3.08
U4A U33C G59A U90G C95A U111G C125A | ≤ -4.2
C5A G50U G84A U135A U139A G141C | ≤ -4.2
C5G A21G C57G C93U A115U | -3.31
C5G G68C C131U C132G U145G A150C | ≤ -4.2
U4G C51G A73U C87U C96A G117A | ≤ -4.2

Variant | polymerase ribozyme fitness (log ratio)
U4G C14G A21U A30U C93G C131U G141A | ≤ -4.2
U4G U61A G88A | ≤ -4.2
C5G G46C G50C C129U U134C C149U | ≤ -4.2
A3U A47C | -0.9
A3G U6A A40G C87A | ≤ -4.2
U4A C57G G83A | -1.23
C5A A24C G80C C149G | ≤ -4.2
A3U C10U G25C A52G G88C A97U G100C U144G | ≤ -4.2
A3U G74A C75G A91U A120U C132U | ≤ -4.2
A3U G68A U77A C85G C149G | ≤ -4.2
A3U C27G C95U A150G | ≤ -4.2
C5A A30C U82G U102C C131U | ≤ -4.2
C5G A29U U55G U78A G92C C118U U145A | ≤ -4.2
A3U C8G C51A A89G U90G A120U G133C | ≤ -4.2
U4G C8G A19G A49U U53C A73G G83A A98G A113C A115U | ≤ -4.2
U4G U6G A20C A24U A30C C95U A119C U148A | ≤ -4.2
A3U A37U G42C C57U C95A A120G | ≤ -4.2
A3U C76A | -1.8
U4C C18U U53A A73G U134C | -2.31
A3U G59U | -0.0606
C5A A20U A47U G74C G117A G126U | ≤ -4.2
U4C A49U C93A | -3.07
U4C C32A A37G G83U A122U U151A | ≤ -4.2
A3U A12G U13G A19C G143U | -2.98

Variant | polymerase ribozyme fitness (log ratio)
A3U U15A A21U U31A C85G | -0.347
C5G G86U | -2.77
C5A G34A | 0.15
A3U G83A A119G G141C | -1.17
A3U C18G A22G G94C C131U | ≤ -4.2
C5G C63A | 0.429
U4C A115G | -1.57
U4A A12C G50A G84U G141U | -3.8
C5G G48A U61A C99G C132G G133U A142C | ≤ -4.2
U4A A24U C57G C85U | -0.18
C5G U6A A28U A30U A39C U45C U53A C57A C96G A115U C129U G140C | -3.81
C5A A21U U77A U82G C96G U104G C105A C118U U139C | ≤ -4.2
U4A G25U C54U G92U G124A | -2.53
C5A C85U C95G | -1.93
A3U A30G G86C C96U | -4
A3U A16U C38U G65C G88A | ≤ -4.2
A3U C54U U56A C95U C123U A150C G152U | -3.58
A3U A30G A52U C79G G88U C95U A115G A120C G133U | -4.13
U4G C5U A24U A26U G65U G88U G94U A98G G124U G143U | ≤ -4.2
C5G G50A C87U | -2.86
A3G U9G C51U G67C G81C A89G A97G | ≤ -4.2
A3U U33A C43U G84A C85A G140C U146C | ≤ -4.2
U4C C69G G141U A147U | -1.91
